Read-outs that look alike come from different tables or passages of the source.
T1: human SLC34A2 (human, UniProt O95436 1-690)
T1 construct: whole, on cells; also called human solute carrier 34 A2; NaPi2b
T1 sequence (looked up): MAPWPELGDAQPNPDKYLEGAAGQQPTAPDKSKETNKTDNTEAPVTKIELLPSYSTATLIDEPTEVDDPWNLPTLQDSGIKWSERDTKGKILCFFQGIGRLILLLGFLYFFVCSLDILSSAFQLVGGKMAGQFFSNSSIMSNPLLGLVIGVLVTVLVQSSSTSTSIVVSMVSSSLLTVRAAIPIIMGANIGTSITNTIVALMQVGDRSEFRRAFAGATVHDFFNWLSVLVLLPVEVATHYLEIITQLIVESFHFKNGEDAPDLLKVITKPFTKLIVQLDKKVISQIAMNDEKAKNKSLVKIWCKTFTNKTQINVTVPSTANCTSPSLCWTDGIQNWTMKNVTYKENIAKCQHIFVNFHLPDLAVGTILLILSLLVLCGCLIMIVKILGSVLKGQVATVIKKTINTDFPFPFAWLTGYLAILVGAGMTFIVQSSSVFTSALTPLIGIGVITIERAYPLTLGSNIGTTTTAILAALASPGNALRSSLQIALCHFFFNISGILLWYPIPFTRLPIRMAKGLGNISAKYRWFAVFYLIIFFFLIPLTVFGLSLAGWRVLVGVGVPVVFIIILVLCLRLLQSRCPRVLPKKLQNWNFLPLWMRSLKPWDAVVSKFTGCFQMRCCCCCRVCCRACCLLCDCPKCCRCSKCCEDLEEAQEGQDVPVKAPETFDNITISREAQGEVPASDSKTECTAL

T2: Rhesus SLC34A2 (Rhesus, UniProt F7HDA3 1-690)
T2 construct: whole, on cells
T2 sequence: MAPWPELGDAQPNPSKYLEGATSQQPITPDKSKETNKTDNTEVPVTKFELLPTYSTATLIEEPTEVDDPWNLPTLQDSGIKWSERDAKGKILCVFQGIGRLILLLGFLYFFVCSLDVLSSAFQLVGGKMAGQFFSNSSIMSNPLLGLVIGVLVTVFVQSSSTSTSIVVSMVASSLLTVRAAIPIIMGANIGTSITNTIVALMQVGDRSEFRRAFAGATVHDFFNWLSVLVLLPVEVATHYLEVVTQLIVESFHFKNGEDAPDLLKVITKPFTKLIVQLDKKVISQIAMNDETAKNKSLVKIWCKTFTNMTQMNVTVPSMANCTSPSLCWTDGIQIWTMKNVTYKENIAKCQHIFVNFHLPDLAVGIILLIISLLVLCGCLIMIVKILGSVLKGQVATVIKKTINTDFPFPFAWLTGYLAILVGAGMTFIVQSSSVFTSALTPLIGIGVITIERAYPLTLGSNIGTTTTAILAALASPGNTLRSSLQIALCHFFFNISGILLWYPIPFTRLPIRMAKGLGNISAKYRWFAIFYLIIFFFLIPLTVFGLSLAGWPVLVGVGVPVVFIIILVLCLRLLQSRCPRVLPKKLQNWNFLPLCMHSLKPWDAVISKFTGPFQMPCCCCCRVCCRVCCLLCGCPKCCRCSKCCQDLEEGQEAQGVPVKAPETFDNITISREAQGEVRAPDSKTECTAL

B1: xi63A11D5B4 hIgG1 (antibody, V domains shown)
VH: QVQLQQPGAELVKPGASVKMSCRTSGYTFITYNMHWVKQTPGQGREWIGAIYPGNGDTSYNQKFKGKATLTADKSSSTAYMQLNSLTSEDSAVYYCSISTIITTGAVDYWGQGTSVTVAS
VL: DIVMTQSHKFMSTSVGDRVSITCKASQDVGTAVAWYQQKAGQSPKLLIYWTSTRHTGVPDRFTGSGSGTDFTLIIRSLQSEDLADYFCQQYSRIPLTFGSGTKLEIK
notes: chimeric, hIgG1
B2: 62G10E4G8.p3.z15 hIgG1 (antibody, V domains shown)
VH: QVQLVQSGAEVVKPGASVKMSCKASGYTFPSYITHWVKQAPGQGLEWIGAIYPGNADTSYIQKFKGRATLTADKSTSTAYMELSSLRSEDTAVYYCARGTYGTSAWFTYWGQGTLVTVSS
VL: EIVLTQSPATLSVSPGERATLSCRARQNIGNNLYWYQQKPGQSPRLLIKYASQSISGIPSRFSGSGSGTDFTLTISSLQSEDFAVYFCQQSFSWPLTFGQGTKLEIK
notes: humanized hIgG1
B3: xi62G10E4G8 hIgG1 (antibody, V domains shown)
VH: QVQLQQSGAEVVKPGASVKMSCKASGYTFPSYITHWVKQTPGQGLEWIGAIYPGNGDTSYIQKFKGKATLTADKSSSTAYMQLSSLTSEDSAVYYCARGTYGTSAWFTYWGQGTLVTVSA
VL: DIVLTQSPATLSVTPGDSVSLSCRARQNIGNNLYWYQQKSHESPRLLIKYASQSISGIPSRFSGSGSGTDFTLTINSVETEDFGVYFCQQSFSWPLTFGAGTKLELK
notes: chimeric, hIgG1
B4: 63A11D5B4.p1.z9 hIgG1 (antibody, V domains shown)
VH: QVQLVQSGAEVVKPGASVKMSCKTSGYTFITYNMHWVRQAPGQGLEWIGAIYPGSGDTSYNQKFKGRVTLTADKSTSTAYMELSSLRSEDTAVYYCSISTIITTGAVDYWGQGTLVTVSS
VL: DIQMTQSPSSLSASVGDRVTITCKASQDVGTAVAWYQQKPGKVPKLLIYWTSTRHTGVPSRFSGSGSGTDFTLTISSLQPEDVATYYCQQYSRIPLTFGGGTKVEIK
notes: humanized hIgG1

Tests used:
human SLC34A2 [1] = target: T1, human SLC34A2; test: FACS, RMG-1 cells
In short: (§1)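 Humanized antibodies were incubated with HEK293/H_SLC34A2, OVCAR3 or RMG-1 cells at 4° C. for 60 minutes. Cells were washed twice with FACS buffer, stained with fluorescent secondary antibody at 4° C. for 30 minutes, washed twice more and analyzed by flow cytometry.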

human SLC34A2 [2] = target: T1, human SLC34A2; test: FACS, OVCAR3 cells
In short: as §1

human SLC34A2 [3] = target: T1, human SLC34A2; test: cell-based or functional assay
human SLC34A2 [4] = target: T1, human SLC34A2; test: cell-based or functional assay; remark: listed apart in the source
human SLC34A2 [5] = target: T1, human SLC34A2; test: FACS, HEK293/human SLC34A2 cells
In short: as §1

Rhesus SLC34A2 [6] = target: T2, Rhesus SLC34A2; test: FACS, HEK293/Rhesus SLC34A2 cells
Experimental: Briefly, the Rhesus SLC34A2 expressing HEK293 engineering cells (HEK293/Rhesus_SLC34A2) were incubated with chimeric Abs (from 200 nM, 4 folds dilution, 8 points). After incubation at 4° C. for 60 minutes, the cells were washed with FACS buffer twice, then stained with fluorescent conjugated secondary antibody at 4° C. for 30 minutes. After that the cells were washed twice and analyzed by flow cytometry.

Rhesus SLC34A2 [7] = target: T2, Rhesus SLC34A2; test: FACS, HEK293/Rhesus SLC34A2 cells; remark: listed apart in the source
human SLC34A2 [8] = target: T1, human SLC34A2; test: FACS, OVCAR3 cells; remark: listed apart in the source
human SLC34A2 [9] = target: T1, human SLC34A2; test: FACS, MDAH2774 cells
human SLC34A2 [10] = target: T1, human SLC34A2; test: cell-based or functional assay; remark: listed apart in the source
human SLC34A2 [11] = target: T1, human SLC34A2; test: cell-based or functional assay; remark: listed apart in the source
Rhesus SLC34A2 [12] = target: T2, Rhesus SLC34A2; test: FACS, HEK293/Rhesus SLC34A2 cells; remark: listed apart in the source

Binder | EC50 (human SLC34A2 [1]) [nM] | Top (human SLC34A2 [1]) [MFI] | EC50 (human SLC34A2 [2]) [nM] | ADCC reporter EC50 (human SLC34A2 [3]) [nM] | ADCC reporter Top (MFI) (human SLC34A2 [3]) | cytotoxicity EC50 (human SLC34A2 [4]) [nM] | cytotoxicity Inhibition % (human SLC34A2 [4]) [%] | EC50 (human SLC34A2 [5]) [nM] | Top (human SLC34A2 [5]) [MFI] | EC50 (Rhesus SLC34A2 [6]) [nM] | Top (MFI) (Rhesus SLC34A2 [6]) | EC50 (Rhesus SLC34A2 [7]) [nM] | Top (MFI) (Rhesus SLC34A2 [7]) | EC50 (human SLC34A2 [8]) [nM] | EC50 (human SLC34A2 [9]) [nM] | ADCC reporter EC50 (human SLC34A2 [10]) [nM] | ADCC reporter Top (MFI) (human SLC34A2 [10]) | ADCC-HEK293 (human SLC34A2 [11]) [nM] | ADCC-OVCAR3 (human SLC34A2 [11]) [nM] | Cytotoxic Effect - MDAH-2774 (human SLC34A2 [11]) [nM] | also measured
B1 | 14.4 | 11200 | 10.5 | 4.6 | 216000 | 0.66 | 99 | 5.21 | 35600 | 2.56 | 15100 | 2.3 | 15200 |  |  |  |  |  |  |  | 
B2 | 3.69 | 10800 | 3.76 |  |  |  |  | 2.34 | 33600 |  |  | 1.4 | 14400 | 3.8 | 2.82 | 5.39 | 123000 | 1.55 | 0.56 | 0.24 | Cytotoxic Effect - OVCAR3 (human SLC34A2 [11]): 0.025 nM; EC50 (Rhesus SLC34A2 [12]): 1.4 nM
B3 | 7.97 | 11300 | 3.73 | 4.8 | 542000 | 0.42 | 97.2 | 4.26 | 32700 | 2.53 | 12000 | 1.8 | 13300 |  |  | 4.56 | 101000 |  |  |  | 
B4 | 28.3 | 12200 | 9.12 |  |  |  |  | 5.49 | 36800 |  |  | 1.6 | 11800 | 9.1 | 15.1 | 1.69 | 116000 | 0.52 | 0.3 | 1.5 | Cytotoxic Effect - OVCAR3 (human SLC34A2 [11]): 0.06 nM; EC50 (Rhesus SLC34A2 [12]): 1.6 nM

Source: patent publication US20240301052A1 (LANOVA MEDICINES DEVELOPMENT, published 2024)
